Patent publication US20250332261A1

Target: human epidermal growth factor receptor 1 (EGFR1) (human) (UniProt P00533)
Assay: tritium-labelled compound 5 µg/ml, 3 h +37 °C, FaDu cells, scintillation counting of lysate; internalized plus surface-bound; mean of three ± S.D.; negative control

% internalized/100000 cells (% internalized/100000 cells): 0.01
Substance: Control-mAb (omalizumab, anti-IgE) (antibody)
